Laboratory results reported in patent US20160251438A1 (LUDWIG INSTITUTE FOR CANCER RESEARCH, published 2016).
Residue numbers refer to the chain shown, from its start.

B1: LHG-10.4-D (antibody, human IgG1, V domains shown)
VH: EVQLVQPGAELRNSGASVKVSCKASGYRFTSYYIDWVRQAPGQGLEWMGRIDPEDGGTKYAQKFQGRVTFTADTSTSTAYVELSSLRSEDTAVYYCARNEWETVVVGDLMYEYEYWGQGTQVTVSS
VL: DIQMTQSPSSLSASLGDRVTITCQASQSISSYLAWYQQKPGQAPKLLIYGTSRLKTGVPSRFSGSGSGTSFTLTISGLEAEDAGTYYCQQYYSAPVTFGQGTKVELK
B2: LHG-10.5-D (antibody, human IgG1, V domains shown)
VH: B1 VH
VL: DIQMTQSPSSLSPSLGDRVTITCQASQTISSFLAWYHQKPGQPPKLLIYRASIPQTGVPSRFSGSGSGTSFTLTIGGLEAEDAGTYYCQQYVSAPPTFGQGTKVELK
B3: LHG-10.4 (antibody, human IgG1, V domains shown)
VH: B1 VH
VL: B1 VL
notes: VK-shuffled variant of LHG-10, human IgG1
B4: LHG-10.5 (antibody, human IgG1, V domains shown)
VH: B1 VH
VL: B2 VL
notes: as for B3
B5: LHG-10.6 (antibody, human IgG1, V domains shown)
VH: B1 VH
VL: B1 VL with K45N, L46I, T51A, Y92A, A94V
notes: as for B3
B6: LHG-10.3-D (antibody, human IgG1, V domains shown)
VH: B1 VH
VL: B1 VL with S30V, T51A, K55Q, Y92A, K103G
B7: LHG-10.3 (antibody, human IgG1, V domains shown)
VH: B1 VH
VL: B1 VL with S30V, T51A, K55Q, Y92A, K103G
notes: as for B3
B8: LHG-10.6-D (antibody, human IgG1, V domains shown)
VH: B1 VH
VL: B1 VL with K45N, L46I, T51A, Y92A, A94V
notes: also called LHG-10.6N297Q
B9: LHG-10-D (antibody, human IgG1, V domains shown)
VH: B1 VH
VL: B1 VL with S9T, T51A, K55Q, Y92D, A94L
B10: MHGARP8 (antibody, V domains shown)
VH: QVQLKESGPGLVAPSQSLSITCTVSGFSLTGYGINWVRQPPGKGLEWLGMIWSDGSTDYNSVLTSRLRISKDNSNSQVFLKMNSLQVDDTARYYCARDRNYYDYDGAMDYWGQGTSVTVSS
VL: DIQVTQSSSYLSVSLGDRVTITCKASDHIKNWLAWYQQKPGIAPRLLVSGATSLEAGVPSRFSGSGSGKNFTLSITSLQTEDVATYYCQQYWSTPWTFGGGTTLEIR
notes: biotinylated for FACS; also called MHG-8

Target: T1, recombinant soluble human GARP-TGFβ1 complex (human, UniProt Q14392 20-628; P01137 30-390)
T1 construct: co-expressed in HEK293E, purified by the Strep-Tag; TGFβ consists of LAP and mature TGFβ; also called shGARP-TGFβ; rhGARP-TGFβ
T1 sequence (Q14392 other isoform, or with tags, fused parts or gaps limits assumed, chain 1 of 2): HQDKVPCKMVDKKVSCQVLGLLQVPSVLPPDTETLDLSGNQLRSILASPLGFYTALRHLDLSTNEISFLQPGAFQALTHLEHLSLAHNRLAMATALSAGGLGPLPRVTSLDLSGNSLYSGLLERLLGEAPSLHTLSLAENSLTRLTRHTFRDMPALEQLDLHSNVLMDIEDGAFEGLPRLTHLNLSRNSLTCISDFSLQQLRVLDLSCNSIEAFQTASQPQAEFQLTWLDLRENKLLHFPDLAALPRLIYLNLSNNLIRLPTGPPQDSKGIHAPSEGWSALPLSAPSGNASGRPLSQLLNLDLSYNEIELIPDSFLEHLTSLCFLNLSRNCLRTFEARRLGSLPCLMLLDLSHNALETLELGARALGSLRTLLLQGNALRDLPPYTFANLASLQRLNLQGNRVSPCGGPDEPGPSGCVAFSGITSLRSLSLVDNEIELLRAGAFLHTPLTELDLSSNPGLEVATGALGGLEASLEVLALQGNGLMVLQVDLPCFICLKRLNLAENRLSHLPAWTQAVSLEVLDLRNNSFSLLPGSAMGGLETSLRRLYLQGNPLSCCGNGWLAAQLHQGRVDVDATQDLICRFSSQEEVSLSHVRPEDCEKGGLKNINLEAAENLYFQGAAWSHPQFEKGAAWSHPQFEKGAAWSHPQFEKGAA
T1 sequence (P01137 30-390 limits assumed, chain 2 of 2): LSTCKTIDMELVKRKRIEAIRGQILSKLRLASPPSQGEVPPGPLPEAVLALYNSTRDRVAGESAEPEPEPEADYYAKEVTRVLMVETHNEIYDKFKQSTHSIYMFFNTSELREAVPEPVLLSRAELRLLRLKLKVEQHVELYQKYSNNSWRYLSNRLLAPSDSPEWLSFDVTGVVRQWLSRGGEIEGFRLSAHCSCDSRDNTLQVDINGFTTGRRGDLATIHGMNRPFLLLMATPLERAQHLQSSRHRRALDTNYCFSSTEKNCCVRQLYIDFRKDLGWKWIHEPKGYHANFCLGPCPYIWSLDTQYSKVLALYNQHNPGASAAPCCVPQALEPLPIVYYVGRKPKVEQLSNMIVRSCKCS
Assay: SPR (Biacore), hGARP-TGFβ1 immobilised

Kd | fold improvement of KD (reference LHG-10-D) | fold improvement of ka (reference LHG-10-D) | fold improvement of kd (reference LHG-10-D) | koff | kon | fold improvement of KD (reference LHG-10) | fold improvement of ka (reference LHG-10) | fold improvement of kd (reference LHG-10) | Binder
0.0327 nM | 5.7 fold | 0.4 fold | 2.2 fold | 1.21e-05 s⁻¹ | 371000 M⁻¹ s⁻¹ |  |  |  | B1
0.028 nM | 6.6 fold | 0.4 fold | 2.4 fold | 1.07e-05 s⁻¹ | 383000 M⁻¹ s⁻¹ |  |  |  | B2
0.0291 nM |  |  |  | 1.3e-05 s⁻¹ | 448000 M⁻¹ s⁻¹ | 4.5 fold | 0.5 fold | 2.4 fold | B3
0.0331 nM |  |  |  | 1.37e-05 s⁻¹ | 415000 M⁻¹ s⁻¹ | 4 fold | 0.6 fold | 2.3 fold | B4
0.0159 nM |  |  |  | 4.4e-06 s⁻¹ | 276000 M⁻¹ s⁻¹ | 8.2 fold | 0.9 fold | 7.1 fold | B5
0.0224 nM | 8.3 fold | 0.6 fold | 5.1 fold | 5.18e-06 s⁻¹ | 231000 M⁻¹ s⁻¹ |  |  |  | B6
0.0222 nM |  |  |  | 6.38e-06 s⁻¹ | 287000 M⁻¹ s⁻¹ | 5.9 fold | 0.8 fold | 4.9 fold | B7
0.0216 nM | 8.6 fold | 0.5 fold | 4.3 fold | 6.15e-06 s⁻¹ | 284000 M⁻¹ s⁻¹ |  |  |  | B8
0.185 nM | 1 fold | 1 fold | 1 fold | 2.62e-05 s⁻¹ | 142000 M⁻¹ s⁻¹ |  |  |  | B9

Target: T2, human TGF-β1 (latent) (human, UniProt P01137 30-390)
T2 construct: from transfected hTGFB1; also called hTGF-β1; hTGFB1
T2 sequence (P01137 30-390 limits assumed): as the sequence (P01137 30-390 limits assumed, chain 2 of 2) above
Assay: FACS, 293T + hTGFB1 only [cont.) B]
Source text: No latent TGF-β is detected on their surface with an anti-LAP antibody. Transfection of GARP or TGFB1 alone induces no or low surface LAP, respectively, whereas co-transfection of GARP and TGFB1 induces high surface LAP as a result of latent TGF-β1 binding and presentation by GARP (FIG. 14, part B, left histograms).

binding result | Binder
no binding | B10
